From US20050027104A1 come the findings set out here.

Assay [1] deals with human IgD (probe or solid phase; preparation not specified at the place) (human) (UniProt P01880). Description: SDS-PAGE and Western blot with IgD after 60 C treatment, densitometry, 6 experiments; reference: monomeric MID962-1200.
For assay [2], the target named is surface-expressed B cell receptor (BCR) IgD on human CD19+ peripheral blood lymphocytes (human) (UniProt P01880). Description: flow cytometry, MID-FITC on PBLs incubated with the pre-immune serum (no blocking).
For assay [3] the target is unchanged. Description: flow cytometry, MID-FITC on PBLs preincubated with rabbit anti-human IgD immunoglobulin fraction (competitor).
The target of assay [4] is One of the two myelomas (purified IgD(κ) or IgD(λ); which one is not stated). Put plainly: dot blot, purified MID in dilutions on membrane, IgD myeloma protein as probe.

Chain of UniProt P01880 (P01880 whole entry): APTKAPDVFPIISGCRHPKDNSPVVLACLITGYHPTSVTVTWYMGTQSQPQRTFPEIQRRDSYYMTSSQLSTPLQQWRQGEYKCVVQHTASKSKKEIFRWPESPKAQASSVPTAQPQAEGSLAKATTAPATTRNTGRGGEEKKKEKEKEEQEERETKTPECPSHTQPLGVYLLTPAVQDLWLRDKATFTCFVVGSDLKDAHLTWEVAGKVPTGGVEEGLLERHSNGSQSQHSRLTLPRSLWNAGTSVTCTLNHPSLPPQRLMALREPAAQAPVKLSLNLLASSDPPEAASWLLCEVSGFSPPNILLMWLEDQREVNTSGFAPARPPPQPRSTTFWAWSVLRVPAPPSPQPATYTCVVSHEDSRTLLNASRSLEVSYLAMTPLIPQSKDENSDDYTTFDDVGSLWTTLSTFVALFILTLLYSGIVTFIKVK

In assay [1], MID962-1200 (F2), tetrameric form showed a fold more efficient binding to IgD than the monomeric form of 23 fold.

As to “MID, IgD-binding surface exposed protein purified from Moraxella catarrhalis strain Bc5 (native full length MID1-2139)”, the Mean fluorescence intensity (arbitrary units) in assay [2] amounted to 79.2; in assay [3], 14.6. The least amount of MID detected on the membrane in assay [4] amounted to 0.001 µg.
